Results taken from article PMC5714123, “The SMAD3 transcription factor binds complex RNA structures with high affinity”.

Tests used:
SMAD3 MH1 [1] = target: T1, SMAD3 MH1 (Homo sapiens, UniProt P84022 1-132); experiment: EMSA; Hill 2.1; EMSA: 25 mM Tris-HCl (pH not given for binding buffer; RNA stock pH 7.5), 115 mM KCl, 1 mM MgCl2, 1 mM DTT, 20 ng/ul poly I:C, 0.1 mg/ml BSA, 10% glycerol, on ice 2 h; 0.5x TBE gel at 4 C; details: protein: recombinant; tags: 6xHis-SUMO cleaved; label: 5' 32P; hairpin with 6x3 internal loop
SMAD3 MH1 [2] = target: T1, SMAD3 MH1; experiment: EMSA; Hill 1.7; EMSA: 25 mM Tris-HCl (pH not given for binding buffer; RNA stock pH 7.5), 115 mM KCl, 1 mM MgCl2, 1 mM DTT, 20 ng/ul poly I:C, 0.1 mg/ml BSA, 10% glycerol, on ice 2 h; 0.5x TBE gel at 4 C; details: protein: recombinant, tags: 6xHis-SUMO cleaved
SMAD3 MH1 [3] = target: T1, SMAD3 MH1; experiment: EMSA; Hill 1.1; EMSA: 25 mM Tris-HCl (pH not given for binding buffer; RNA stock pH 7.5), 115 mM KCl, 1 mM MgCl2, 1 mM DTT, 20 ng/ul poly I:C, 0.1 mg/ml BSA, 10% glycerol, on ice 2 h; 0.5x TBE gel at 4 C; details: protein: recombinant; tags: 6xHis-SUMO cleaved; label: 5' 32P; structured, multi-loop
SMAD3 MH1 [4] = target: T1, SMAD3 MH1; experiment: EMSA; Hill 1.9; EMSA: 25 mM Tris-HCl (pH not given for binding buffer; RNA stock pH 7.5), 115 mM KCl, 1 mM MgCl2, 1 mM DTT, 20 ng/ul poly I:C, 0.1 mg/ml BSA, 10% glycerol, on ice 2 h; 0.5x TBE gel at 4 C; details: protein: recombinant, tags: 6xHis-SUMO cleaved
SMAD3 MH1 [5] = target: T1, SMAD3 MH1; experiment: EMSA; Hill 1.8; EMSA: 25 mM Tris-HCl (pH not given for binding buffer; RNA stock pH 7.5), 115 mM KCl, 1 mM MgCl2, 1 mM DTT, 20 ng/ul poly I:C, 0.1 mg/ml BSA, 10% glycerol, on ice 2 h; 0.5x TBE gel at 4 C; details: protein: recombinant, tags: 6xHis-SUMO cleaved
SMAD3 MH1 [6] = target: T1, SMAD3 MH1; experiment: EMSA; Hill 2.2; EMSA: 25 mM Tris-HCl (pH not given for binding buffer; RNA stock pH 7.5), 115 mM KCl, 1 mM MgCl2, 1 mM DTT, 20 ng/ul poly I:C, 0.1 mg/ml BSA, 10% glycerol, on ice 2 h; 0.5x TBE gel at 4 C; details: protein: recombinant; tags: 6xHis-SUMO cleaved; label: 5' 32P; hairpin with 1x5 internal loop
SMAD3 MH1 [7] = target: T1, SMAD3 MH1; experiment: EMSA; Hill 3.2; EMSA: 25 mM Tris-HCl (pH not given for binding buffer; RNA stock pH 7.5), 115 mM KCl, 1 mM MgCl2, 1 mM DTT, 20 ng/ul poly I:C, 0.1 mg/ml BSA, 10% glycerol, on ice 2 h; 0.5x TBE gel at 4 C; details: protein: recombinant; tags: 6xHis-SUMO cleaved; label: 5' 32P; hairpin with single-stranded flanks
SMAD3 MH1 [8] = target: T1, SMAD3 MH1; experiment: EMSA; Hill 3.6; EMSA: 25 mM Tris-HCl (pH not given for binding buffer; RNA stock pH 7.5), 115 mM KCl, 1 mM MgCl2, 1 mM DTT, 20 ng/ul poly I:C, 0.1 mg/ml BSA, 10% glycerol, on ice 2 h; 0.5x TBE gel at 4 C; details: protein: recombinant; tags: 6xHis-SUMO cleaved; label: 5' 32P (EMSA); hairpin
SMAD3 MH1 [9] = target: T1, SMAD3 MH1; experiment: EMSA; Hill 1.6; EMSA: 25 mM Tris-HCl (pH not given for binding buffer; RNA stock pH 7.5), 115 mM KCl, 1 mM MgCl2, 1 mM DTT, 20 ng/ul poly I:C, 0.1 mg/ml BSA, 10% glycerol, on ice 2 h; 0.5x TBE gel at 4 C; details: protein: recombinant; tags: 6xHis-SUMO cleaved; label: 5' 32P; hairpin
SMAD3 MH1 [10] = target: T1, SMAD3 MH1; experiment: EMSA; Hill 2.7; EMSA: 25 mM Tris-HCl (pH not given for binding buffer; RNA stock pH 7.5), 115 mM KCl, 1 mM MgCl2, 1 mM DTT, 20 ng/ul poly I:C, 0.1 mg/ml BSA, 10% glycerol, on ice 2 h; 0.5x TBE gel at 4 C; details: protein: recombinant; tags: 6xHis-SUMO cleaved; label: 5' 32P; hairpin
SMAD3 MH1 [11] = target: T1, SMAD3 MH1; experiment: EMSA; Hill 3.1; EMSA: 25 mM Tris-HCl (pH not given for binding buffer; RNA stock pH 7.5), 115 mM KCl, 1 mM MgCl2, 1 mM DTT, 20 ng/ul poly I:C, 0.1 mg/ml BSA, 10% glycerol, on ice 2 h; 0.5x TBE gel at 4 C; details: protein: recombinant; tags: 6xHis-SUMO cleaved; label: 5' 32P; hairpin
SMAD3 MH1 [12] = target: T1, SMAD3 MH1; experiment: EMSA; Hill 3.4; EMSA: 25 mM Tris-HCl (pH not given for binding buffer; RNA stock pH 7.5), 115 mM KCl, 1 mM MgCl2, 1 mM DTT, 20 ng/ul poly I:C, 0.1 mg/ml BSA, 10% glycerol, on ice 2 h; 0.5x TBE gel at 4 C; details: protein: recombinant; tags: 6xHis-SUMO cleaved; label: 5' 32P; hairpin
SMAD3 MH1 [13] = target: T1, SMAD3 MH1; experiment: EMSA; Hill 3.0; EMSA: 25 mM Tris-HCl (pH not given for binding buffer; RNA stock pH 7.5), 115 mM KCl, 1 mM MgCl2, 1 mM DTT, 20 ng/ul poly I:C, 0.1 mg/ml BSA, 10% glycerol, on ice 2 h; 0.5x TBE gel at 4 C; details: protein: recombinant; tags: 6xHis-SUMO cleaved; label: 5' 32P; hairpin
SMAD3 MH1 [14] = target: T1, SMAD3 MH1; experiment: EMSA; Hill 2.5; EMSA: 25 mM Tris-HCl (pH not given for binding buffer; RNA stock pH 7.5), 115 mM KCl, 1 mM MgCl2, 1 mM DTT, 20 ng/ul poly I:C, 0.1 mg/ml BSA, 10% glycerol, on ice 2 h; 0.5x TBE gel at 4 C; details: protein: recombinant; tags: 6xHis-SUMO cleaved; label: 5' 32P; hairpin with 2x3 internal loop
[15] = label: 5' 32P, hairpin with 6x3 internal loop

T1 sequence (P84022 1-132): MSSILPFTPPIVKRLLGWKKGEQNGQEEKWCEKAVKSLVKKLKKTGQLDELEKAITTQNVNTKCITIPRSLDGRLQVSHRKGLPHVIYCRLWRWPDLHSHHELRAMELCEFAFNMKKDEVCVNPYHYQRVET

B1: 17d D4a isolated terminal loop (structured_RNA)
RNA: GGGUCUCGUAUUGCAGAAAUGACACAUCUUGCCCGUAACCAAUCGGGUAAGGUGUGUCAAAUCAAUGCGAGAC
- Kd (SMAD3 MH1 [1]): 570 ± 20 nM

B2: 17a D4a truncation 1 (structured_RNA)
RNA: GGGUCUCGUAUUGCAGAAAUGACAACAUCUUUCGAGGUGGUCAAAUCAAGCGAGAC
- Kd (SMAD3 MH1 [2]; [15]): 340 ± 70 nM

B3: 11 VAI (structured_RNA)
RNA: GGGCACUCUUCCGUGGUCUGGUGGAUAAAUUCGCAAGGGUAUCAUGGCGGACGACCGGGGUUCGAACCCCGGAUCCGGCCGUCCGCCGUGAUCCAUGCGGUUACCGCCCGCGUGUCGAACCCAGGUGUGCGACGUCAGACAACGGGGGAGCGCUC
- Kd (SMAD3 MH1 [3]): 110 ± 20 nM

B4: 3c hsa-miR-199a-1 stem loop (structured_RNA)
RNA: GGCCAACCCAGUGUUCAGACUACCUGUUCAGGAGGCUCUCAAUGUGUACAGUAGUCUGCACAUUGGUUAGGCC
- Kd (SMAD3 MH1 [4]; label: 5' 32P, hairpin): 1250 ± 50 nM

Binder: GAUACUUGAAACUGUAAGGUUGGCGUAUC (structured_RNA) [20 NF-kB aptamer]
- Kd (SMAD3 MH1 [5]; label: 5' 32P, hairpin with 4x3 internal loop): 4400 ± 600 nM

B5: 17e D4a isolated apical loop (structured_RNA)
RNA: GGGUCUCGUAUUGCAGAUGACACAUCUGCCGUAACCAAUCGGGUAAAAGGUGUGUCAUCUGCAAUGCGAGAC
- Kd (SMAD3 MH1 [6]): 400 ± 10 nM

B6: 10 hsa-miR-21 extended (structured_RNA)
RNA: GGGUGUUUUGCCUACCAUCGUGACAUCUCCAUGGCUGUACCACCUUGUCGGGUAGCUUAUCAGACUGAUGUUGACUGUUGAAUCUCAUGGCAACACCAGUCGAUGGGCUGUCUGACAUUUUGGUAUCUUUCAUCUGACCAUCCAUAUCCAAUGUUCUCAG
- Kd (SMAD3 MH1 [7]): 700 ± 60 nM

B7: 16 30-bp hairpin (structured_RNA)
RNA: GGAUCGAUCGAUCGAUCGGCAUCGAUCGGCUUCGGCCGAUCGAUGCCGAUCGAUCGAUCGAUCC
- Kd (SMAD3 MH1 [8]): 4000 ± 200 nM

Binder: GGGUCUCGUAUUGCAGAAAUAAAUCAAGCGAGAC (structured_RNA) [17c D4a truncation 3]
- Kd (SMAD3 MH1 [9]): 1500 ± 300 nM

Binder: GGGUCUCGUAUUGCAGAAAUGACUUCGGUCAAAUCAAGAGAGAC (structured_RNA) [17b D4a truncation 2]
- Kd (SMAD3 MH1 [5]; [15]): 480 ± 80 nM

Binder: GGACGUGAGGUAGUAUGUAAGCGUUCGCGCUUUCAACUAACUCGCGUCC (structured_RNA) [9a cel-miR-84 central stem]
- Kd (SMAD3 MH1 [10]): 2900 ± 100 nM

Binder: GGACGCUUAUCAGACUGAUGUUGUUCGCAACACCAGUCGAUGGGCGUCC (structured_RNA) [1a hsa-miR-21 central stem]
- Kd (SMAD3 MH1 [11]): 2500 ± 100 nM

Binder: GGACGCUUAUAAAACUGAUGUUGUUCGCAACACCAGUUUAUGGGCGUCC (structured_RNA) [1b hsa-miR-21 central stem dSBE]
- Kd (SMAD3 MH1 [12]): 2700 ± 100 nM

Binder: GGACGUACUGCCAGAAGUGGGCGUUCGCGCGUACUCUGGUGGGUACGUCC (structured_RNA) [6b hsa-miR-509 central stem dSBE]
- Kd (SMAD3 MH1 [13]): 3000 ± 300 nM

B8: 17 Group II intron D4A (structured_RNA)
RNA: GGGGUCUCGUAUUGCAGAAAUGACAACAUCUGCCGUAACCAAUCGGGUAAAAGGUGGUCAAAUCAAGCGAGAC
- Kd (SMAD3 MH1 [2]; label: 5' 32P (EMSA), hairpin with 1x5 and 6x3 internal loops): 190 ± 10 nM

B9: 18 ai5-gamma D3 (structured_RNA)
RNA: GGGUAUAAAAAGCUAAUGCCAUAUUGUAAUGAUAUGGAUAAGAAUUAUUAUUCUAAAGAUGAAAAUCUGCUAACUUAUACUG
- Kd (SMAD3 MH1 [5]; label: 5' 32P (EMSA), four-way junction with bulged stem): 190 ± 30 nM

B10: 19 dsDNA with 1 SBE (dsDNA)
DNA 1: GTATGTCTCAGATGAA
DNA 2: TTCATCTGAGACATAC
- Kd (SMAD3 MH1 [4]; label: 5' 32P on one strand, blunt): 190 ± 20 nM

Binder: GGACGUACUGCAGACAGUGGGCGUUCGCGCGUACGUCUGUGGGUACGUCC (structured_RNA) [6a hsa-miR-509 central stem]
- Kd (SMAD3 MH1 [5]; label: 5' 32P, hairpin): 2100 ± 300 nM

B11: 9c cel-miR-84 stem loop (structured_RNA)
RNA: GGCAUCUGAGGUAGUAUGUAAUAUUGUAGACUGUCUAUAAUGUCCACAAUGUUUCAACUAACUCGGCUGCC
- Kd (SMAD3 MH1 [10]): 1600 ± 100 nM

Binder: GGUCUGGGCGCAGCGCAAGCUGACGGUACAGGCC (structured_RNA) [21 RRE]
- Kd (SMAD3 MH1 [14]): 3000 ± 300 nM
